Assay results taken from paper PMC12597263.

Target: T1, recombinant human (rh) BMP2 (human) (UniProt P12643)
T1 sequence: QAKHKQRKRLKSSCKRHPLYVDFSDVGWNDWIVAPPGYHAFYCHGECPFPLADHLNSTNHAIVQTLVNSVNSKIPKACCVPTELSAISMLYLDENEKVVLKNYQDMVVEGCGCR

B1: GREM1^WT-mCherry (human Gremlin1 fused to mCherry) (natural protein)
chain: KKKGSQGAIPPPDKAQHNDSEQTQSPQQPGSRNRGRGQGRGTAMPGEEVLESSQEALHVTERKYLKRDWCKTQPLKQTIHEEGCNSRTIINRFCYGQCNSFYIPRHIRKEEGSFQSCSFCKPKKFTTMMVTLNCPELQPPTKKKRVTRVKQCRCISIDLD
  GREM1-mCherry uptake into HCT116 cells (integrated mCherry fluorescence per cell) from conditioned medium with 200 ng/ml BMP2 versus vehicle, overnight (16 h): 5 fold
